Measurements as given in patent US9932390 (SHRINERS HOSPITAL FOR CHILDREN, dated 2018).
Positions of bridges follow the written chain, without caps; N, C: chain ends. Chains are numbered I, II in the order given. No end group written: not given here.

T1: α2NC2 (NC2 domain of the human collagen IX α2 chain) (human)
T1 construct: Expressed as the Trx_α2NC2 fusion and cleaved with thrombin; also called U2
T1 peptide: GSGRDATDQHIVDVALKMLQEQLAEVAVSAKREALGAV

T2: α3NC2-(GPP)5CC (human, not fully specified; chain 1: Cys60 and Cys61 (collagen III cystine knot) form interchain disulfides in the oxidized trimer. Cys15 is also counted as oxidized in the calculated trimer mass.)
T2 construct: Mixed and reoxidized as a His-tagged thioredoxin fusion, then characterized after thrombin cleavage as part of α123NC2-(GPP)5CC; also called Trx_α3NC2-(GPP)5CC (before thrombin cleavage)
T2 peptide: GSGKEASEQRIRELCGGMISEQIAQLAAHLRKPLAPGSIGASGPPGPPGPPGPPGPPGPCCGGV


What was measured:
[1] = target: T1, α2NC2 (NC2 domain of the human collagen …); assay: CD at 222 nm, thermal transition at 18.7 µM complex, pH 4.5, bimolecular two-state fit
Experimental: (§1) FIG. 9. Thermal transitions of the NC2-containing complexes. A, Thermal transition curves of α123NC2-(GPP)_5CC were recorded in 50 mM sodium acetate buffer, pH 4.5, supplemented with 0M (green circles), 1M (red circles for heating and blue circles for cooling), and 2M (cyan circles) guanidine hydrochloride using 7 μM complex concentrations and a 1-mm path length quartz cuvette. The change in collagen triple helical and α-helical contents was monitored at 230 nm with a scan rate of 1° C./min. […] The first transition followed by the increase of the CD signal is associated with the unfolding of the collagen triple helix, whereas the second transition is associated with the unfolding of the NC2 domain. […] The change in α-helical content was monitored at 222 nm with a scan rate of 0.25° C./min. The curves were globally fitted (white lines) as described herein.
(§2) Since the α1NC2 chain is disulfide-linked to the α3NC2 chain, only two products dissociates from the complex upon denaturation and the folding reaction should be considered as bimolecular. According to this and other assumptions (see 1.1.-1.10., above), two transitions using a 10-fold difference in concentrations of the complex were separately globally fitted and yielded similar values of the standard enthalpy, $\Delta H^0$, and the standard entropy, $\Delta S^0$.

[2] = target: T1, α2NC2 (NC2 domain of the human collagen …); assay: CD at 222 nm, thermal transition at 1.87 µM complex, pH 4.5, bimolecular two-state fit
Experimental: as §1, §2

α3NC2-(GPP)5CC = target: T2, α3NC2-(GPP)5CC; assay: oxidative folding of the three Trx fusions, non-reducing SDS-PAGE
Experimental: Initially the purified constructs either with or without collagenous part were folded under the same oxidative conditions. The three chains of approximately equal concentrations were mixed, diluted with water and the buffer was adjusted to 100 mM Tris/HCl buffer, pH 8.6, containing 15 mM Na-phosphate, 150 mM NaCl, 150 mM imidazol, 10 mM reduced glutathione, 1 mM oxidized glutathione at 25° C. Final concentration of each chain was ~10 µM. The solution was sequentially incubated at 37° C. for 24 hours, at 30° C. for 24 hours, 25° C. for 24 hours and the pH value was periodically checked and adjusted to be not lower than 8.3. Finally, the solution was extensively dialyzed against 50 mM Tris/HCl buffer, pH 8, containing 150 mM NaCl, at room temperature to remove imidazol and reducing agents.
1.11.3. Results: Initial Purification of Fusion Proteins Trx_α1NC2-(GPP)_5C, Trx_α2NC2-(GPP)_5CC and Trx_α3NC2-(GPP)5CC and their Reoxidation Soluble fractions of cell lysates were separately purified over the Ni-NTA resin and analyzed on a gel (FIG. 2A, lanes 1-3). In addition to bands corresponding to monomeric species around 20 kDa, dimeric, trimeric and ladders of higher multimers were observed, indicating formation of multiple intermolecular disulfide bonds, presumably due to misfolding. […]

Binder | Tm (midpoint of the coupled unfolding and dissociation) [1] [° C.] | ΔH^0 (standard enthalpy of U13+U2 to N) [1] | ΔS^0 (standard entropy of U13+U2 to N) [1] | Tm (midpoint of the coupled unfolding and dissociation) [2] [° C.] | ΔH^0 (standard enthalpy of U13+U2 to N) [2] | ΔS^0 (standard entropy of U13+U2 to N) [2] | binding result (α3NC2-(GPP)5CC)
disulfide-bonded α1NC2-α3NC2 (NC2 domains of the human collagen IX α1 and α3 chains, linked by a disulfide) (other, disulfide I:12-II:12 (inferred), Part of the α123NC2 complex after removal of His-tagged thioredoxin; also called α1-α3; U13) chain 1: GSPTDQHIKQVCMRVIQEHFAEMAASLKRPDS chain 2: GSASEQRIRELCGGMISEQIAQLAAHLRKPLAP | 65.8 | -203 kJ/(mol complex) | -502 J/(mol complex K) | 51.2 | -200 kJ/(mol complex) | -500 J/(mol complex K) | 
α1NC2-(GPP)5CC (not fully specified; also: interchain disulfides via Cys62 and Cys63 in the trimer with other chains, Mixed and reoxidized as a His-tagged thioredoxin fusion, then characterized after thrombin cleavage as part of α123NC2-(GPP)5CC; also called Trx_α1NC2-(GPP)5CC (before thrombin cleavage)) peptide: GSGYPGRAPTDQHIKQVCMRVIQEHFAEMAASLKRPDSGATGASGPPGPPGPPGPPGPPGPCCGGV |  |  |  |  |  |  | binds
